Assay results as given in patent US6015560.
Read-outs that look alike come from different tables or passages of the source.

Columns and labels:
[1] = molecular target: integrin complement receptor 3 (CR3) on human leukocytes (human) (UniProt P11215)
[2] = molecular target: integrin complement receptor 3 (CR3) on human leukocytes (human) (UniProt P11215); remark: listed apart in the source
[3] = molecular target: integrin complement receptor 3 (CR3) on human leukocytes (human) (UniProt P11215); remark: listed apart in the source
[4] = molecular target: integrin complement receptor 3 (CR3) on human leukocytes (human) (UniProt P11215); assay: competition: 125I-Factor X binding to fMLP-stimulated human neutrophils
[5] = molecular target: integrin complement receptor 3 (CR3) on human leukocytes (human) (UniProt P11215); remark: listed apart in the source
[6] = molecular target: integrin complement receptor 3 (CR3) on human leukocytes (human) (UniProt P11215); assay: macrophages spread on antibody-coated wells; residual CD11b/CD18 detected with C3bi-coated erythrocytes
[7] = molecular target: integrin complement receptor 3 (CR3) on human leukocytes (human) (UniProt P11215); remark: listed apart in the source

## Filamentous hemagglutinin (FHA) of Bordetella pertussis, native purified protein (from UniProt P12255) (ligand)
[1]
  % inhibition of 125I-Factor X binding: 70%
[2]
  % Inhibition of TEM (transendothelial migration of neutrophils): 82%
[3]
  concentration at which inhibition of neutrophil adherence was lost: 0.001 µM
[4]
  IC50: 100 nM

## mAb IB4 against CD18 (antibody)
[5]
  inhibition of neutrophil adherence to TNF-stimulated HUVEC: 38%
[4]
  % inhibition of 125I-Factor X binding: 53%
[6]
  % reduction of the binding of C3bi-coated erythrocytes to macrophages: 67%
[7]
  inhibition of transendothelial migration of neutrophils: 73%

## mAb W6/32 against HLA class I antigen (antibody)
[7]
  inhibition of transendothelial migration of neutrophils: 6%
